The values that follow come from the Human Domainome abundance scans (Beltran et al. 2025).

± gives the uncertainty stated by the source.

Sequences and labels used below:
B1: RanBP-type and C3HC4-type zinc finger-containing protein 1, residues 369 to 411; numbered along this chain, Q9BYM8 (parent)
chain: YHCKTPDCKGWCFFEDDVNEFTCPVCFHVNCLLCKAIHEQMNC
B2: Tripartite motif-containing protein 44, residues 174 to 218; numbered along this chain, Q96DX7 (parent)
chain: VAKRKCPDHGLDLSTYCQEDRQLICVLCPVIGAHQGHQLSTLDEA

The first data set covers variants of B1. Nature of the data set: abundance fitness (aPCA) (normalised: wild type 0, dead -1); higher = more abundant; growth selection in yeast, the domain comes from the species named. To be noted: Homo sapiens.
Consider L33S, for which the abundance fitness is -0.065 ± 0.045.
Still for that read-out and setting: the figure for L33C is -0.213 ± 0.078.
The same measure, in the same setting: in the case of L33F it was -0.313 ± 0.14; in that of W11K, 0.023 ± 0.05; in that of W11T, 0.176 ± 0.049.
On the same count and under the same terms, the figure for W11N is 0.063 ± 0.071; for W11L it is 0.044 ± 0.054; for W11C it is -0.088 ± 0.088.
With K9R, the abundance fitness is 0.036 ± 0.041.
Turning to K9H, the abundance fitness was -0.259 ± 0.079.
The same measure, in the same setting: the figure for C31E is -0.611 ± 0.057.
Consider C31Q, for which the abundance fitness was -0.521 ± 0.077.
C31S: the abundance fitness is -0.438 ± 0.043.
With N19C, the abundance fitness was -0.118 ± 0.047.
Regarding N19F, the abundance fitness is -0.395 ± 0.44.
Turning to N19E, the abundance fitness is 0.042 ± 0.054.
For N19R, the abundance fitness was 0.014 ± 0.04.
On to N19V, for which the abundance fitness was 0.028 ± 0.052.
Consider C43H, for which the abundance fitness was -0.23 ± 0.12.
As to C43Q, the abundance fitness is -0.357 ± 0.074.
For the variant C43K, the abundance fitness was -0.37 ± 0.074.
As for H2G, the abundance fitness is -0.568 ± 0.051.
As to H2N, the abundance fitness came out at 0.104 ± 0.1.
Regarding H2I, the abundance fitness is -0.265 ± 0.14.
The same measure, in the same setting: in the case of H2L it was -0.233 ± 0.056; in that of V25L, -0.113 ± 0.046.
As for V25E, the abundance fitness was -0.138 ± 0.066.
V25Q: the abundance fitness is -0.17 ± 0.054.
Same read-out and setting: the figure for V25K is -0.112 ± 0.049; for C26G it is -0.757 ± 0.049.
For C26S, the abundance fitness was -0.804 ± 0.14.
Take C26N: the abundance fitness was -0.708 ± 0.14.
Take C26V: the abundance fitness was -1.03 ± 0.093.
On to C26A, for which the abundance fitness is -0.713 ± 0.069.
C26W: the abundance fitness was -1.07 ± 0.093.
With Y1L, the abundance fitness is -0.453 ± 0.14.
The same measure, in the same setting: in the case of Y1F it was -0.282 ± 0.2; in that of Y1W, -0.437 ± 0.074; in that of Y1V, -0.265 ± 0.06.
For the variant Y1T, the abundance fitness was -0.24 ± 0.06.
In the case of V18R, the abundance fitness is 0.069 ± 0.039.
The same measure, in the same setting: the figure for V18W is -0.458 ± 0.061; for V18K it is -0.001 ± 0.058; for C8L it is -0.846 ± 0.14.
With C8D, the abundance fitness is -0.812 ± 0.15.
Turning to P6M, the abundance fitness is -0.23 ± 0.06.
For the variant P6I, the abundance fitness is -0.411 ± 0.11.
On the same count and under the same terms, in the case of L32N it was -0.131 ± 0.14; in that of L32P, -0.525 ± 0.063; in that of N42I, -0.231 ± 0.21.
On the same count and under the same terms, in the case of N42R it was -0.008 ± 0.046; in that of N42F, -0.415 ± 0.12; in that of N42T, 0.069 ± 0.063.
Turning to F13R, the abundance fitness turned out to be 0.092 ± 0.081.
Turning to F13V, the abundance fitness is -0.235 ± 0.094.
On to F13A, for which the abundance fitness stood at 0.124 ± 0.089.
H28D: the abundance fitness is -0.661 ± 0.091.
For the variant H28I, the abundance fitness is -0.224 ± 0.16.
With H28R, the abundance fitness was determined as 0.011 ± 0.04.
Same read-out and setting: the figure for H28T is -0.041 ± 0.05.
Regarding H28Y, the abundance fitness is -0.489 ± 0.11.
As for D16P, the abundance fitness stood at 0.113 ± 0.083.
For the variant D16K, the abundance fitness came out at 0.146 ± 0.063.
In the case of D16H, the abundance fitness was -0.045 ± 0.14.
Same read-out and setting: in the case of D16C it was -0.182 ± 0.057; in that of D16I, -0.458 ± 0.17; in that of D16N, -0.171 ± 0.1.
As for D16Q, the abundance fitness was 0.045 ± 0.059.
On the same count and under the same terms, the figure for C34W is -1.02 ± 0.094.
Consider C34A, for which the abundance fitness is -0.733 ± 0.05.
Regarding C34E, the abundance fitness is -0.312 ± 0.044.
Take C34S: the abundance fitness was -0.488 ± 0.052.
On to C34P, for which the abundance fitness is -0.174 ± 0.067.
Consider G10V, for which the abundance fitness is -0.779 ± 0.081.
Regarding G10S, the abundance fitness is -0.587 ± 0.067.
On to G10A, for which the abundance fitness is -0.541 ± 0.055.
Consider G10T, for which the abundance fitness was -0.494 ± 0.071.
In the case of G10F, the abundance fitness is -0.346 ± 0.17.
Take G10R: the abundance fitness is -0.66 ± 0.051.
With M41R, the abundance fitness amounted to 0.128 ± 0.038.
Consider M41N, for which the abundance fitness came out at 0.114 ± 0.062.
On the same count and under the same terms, the figure for P24E is -0.277 ± 0.067; for P24H it is -0.676 ± 0.11; for K35P it is -0.356 ± 0.063.
For K35R, the abundance fitness was -0.021 ± 0.043.
Regarding K35H, the abundance fitness was -0.023 ± 0.067.
Consider K35F, for which the abundance fitness is -0.149 ± 0.059.
Regarding F21N, the abundance fitness is -0.321 ± 0.088.
On the same count and under the same terms, in the case of F21G it was -0.291 ± 0.04; in that of F21L, -0.45 ± 0.048; in that of E15S, -0.254 ± 0.08.
On the same count and under the same terms, in the case of E15I it was -0.187 ± 0.24.
With E15L, the abundance fitness was -0.423 ± 0.087.
For the variant E20I, the abundance fitness is -0.465 ± 0.2.
As to E20Q, the abundance fitness is -0.206 ± 0.054.
On the same count and under the same terms, in the case of E20H it was -0.332 ± 0.079; in that of E20C, -0.303 ± 0.092.
For T5V, the abundance fitness was -0.083 ± 0.049.
Same read-out and setting: the figure for T5P is -0.764 ± 0.083; for T5C it is -0.063 ± 0.081; for C3D it is -0.969 ± 0.1.
C3K: the abundance fitness was -0.771 ± 0.071.
Still for that read-out and setting: the figure for C3W is -0.879 ± 0.06; for C3Q it is -0.886 ± 0.12; for C3E it is -0.984 ± 0.16.
For the variant V29K, the abundance fitness is -0.109 ± 0.095.
Still for that read-out and setting: the figure for V29R is -0.105 ± 0.044.
In the case of V29E, the abundance fitness is -0.34 ± 0.056.
Still for that read-out and setting: the figure for A36I is -0.331 ± 0.11.
Regarding A36C, the abundance fitness is -0.154 ± 0.071.
On the same count and under the same terms, the figure for A36K is -0.084 ± 0.052.
Still for that read-out and setting: in the case of A36W it was -0.87 ± 0.075.
For the variant Q40D, the abundance fitness was determined as 0.043 ± 0.08.
Turning to Q40E, the abundance fitness worked out at 0.107 ± 0.054.
On the same count and under the same terms, in the case of Q40S it was 0.023 ± 0.041.
Q40F: the abundance fitness is -0.54 ± 0.12.
With F27G, the abundance fitness is 0.115 ± 0.038.
Still for that read-out and setting: in the case of E39A it was -0.09 ± 0.049; in that of E39W, -0.249 ± 0.06; in that of E39P, 0.029 ± 0.059.
In the case of E39N, the abundance fitness is -0.081 ± 0.17.
I37A: the abundance fitness is -0.152 ± 0.043.
With I37Y, the abundance fitness is -0.464 ± 0.064.
For I37K, the abundance fitness is -0.208 ± 0.083.
Take N30A: the abundance fitness is -1.3 ± 0.14.
Turning to N30P, the abundance fitness was -0.784 ± 0.11.
With N30K, the abundance fitness was -0.781 ± 0.12.
As to K4I, the abundance fitness was -0.206 ± 0.14.
Take K4E: the abundance fitness was -0.359 ± 0.064.
As for K4P, the abundance fitness is -0.527 ± 0.072.
Turning to K4W, the abundance fitness was -0.083 ± 0.065.
As to K4V, the abundance fitness was determined as 0.051 ± 0.045.
The same measure, in the same setting: the figure for K4F is 0.028 ± 0.09.
Turning to K4L, the abundance fitness is 0.124 ± 0.044.
On to D7M, for which the abundance fitness was -0.202 ± 0.062.
Still for that read-out and setting: in the case of D7L it was -0.2 ± 0.04; in that of D7E, 0.034 ± 0.054; in that of H38Y, -0.721 ± 0.12.
H38Q: the abundance fitness was -0.63 ± 0.06.
The same measure, in the same setting: in the case of H38F it was -0.59 ± 0.19; in that of H38R, -0.699 ± 0.055; in that of C12R, -0.193 ± 0.1.
On the same count and under the same terms, in the case of C23S it was -0.904 ± 0.098; in that of C23R, -0.771 ± 0.057; in that of C23H, -0.786 ± 0.19.
For the variant C23K, the abundance fitness is -0.529 ± 0.14.
For C23A, the abundance fitness was -0.794 ± 0.073.
On to T22L, for which the abundance fitness is -0.146 ± 0.05.
Regarding T22K, the abundance fitness is -0.102 ± 0.083.
Regarding T22A, the abundance fitness is -0.296 ± 0.05.
The same measure, in the same setting: the figure for T22V is -0.254 ± 0.051; for T22P it is -0.413 ± 0.17.
Same read-out and setting: in the case of D17Q it was 0.142 ± 0.064; in that of D17G, 0.116 ± 0.043.

In the next data set the parent is B2. Described as above. To be noted: Homo sapiens.
With V1L, the abundance fitness is -0.196 ± 0.038.
Turning to V1F, the abundance fitness was -0.197 ± 0.06.
Take V1M: the abundance fitness is -0.032 ± 0.056.
Regarding V1I, the abundance fitness came out at 0.036 ± 0.035.
The same measure, in the same setting: in the case of V1D it was -0.112 ± 0.041.
For V1A, the abundance fitness was -0.13 ± 0.034.
With V1G, the abundance fitness is -0.107 ± 0.029.
Same read-out and setting: in the case of V1H it was -0.275 ± 0.085.
Take V1P: the abundance fitness was -0.11 ± 0.22.
The same measure, in the same setting: the figure for V1C is -0.029 ± 0.06.
For the variant V1N, the abundance fitness is -0.097 ± 0.047.
In the case of V1E, the abundance fitness is -0.049 ± 0.038.
For V1K, the abundance fitness was -0.005 ± 0.041.
